Data reported in patent US20210155689A1 (SHANGHAI PHARMAEXPLORER, published 2021).

T1: monkey LAG-3 (full length, on the cell surface) (monkey, UniProt P18627 24-525 (human entry))
T1 construct: also called HEK293-cLAG-3; monkey LAG-3 protein on the cell surface
T1 chain: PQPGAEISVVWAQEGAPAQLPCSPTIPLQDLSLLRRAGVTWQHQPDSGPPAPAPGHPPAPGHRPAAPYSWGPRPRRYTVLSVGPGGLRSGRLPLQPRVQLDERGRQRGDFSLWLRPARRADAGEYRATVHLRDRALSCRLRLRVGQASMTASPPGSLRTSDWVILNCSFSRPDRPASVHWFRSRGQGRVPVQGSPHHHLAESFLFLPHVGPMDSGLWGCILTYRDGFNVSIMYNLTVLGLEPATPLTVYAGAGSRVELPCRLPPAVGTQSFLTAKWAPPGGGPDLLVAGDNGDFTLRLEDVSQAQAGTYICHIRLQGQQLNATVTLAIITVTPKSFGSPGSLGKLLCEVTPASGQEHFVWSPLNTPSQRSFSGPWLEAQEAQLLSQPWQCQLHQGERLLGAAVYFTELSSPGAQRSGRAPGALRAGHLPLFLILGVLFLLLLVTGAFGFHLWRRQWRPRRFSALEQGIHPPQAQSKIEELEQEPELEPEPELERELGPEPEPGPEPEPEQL

T2: monkey LAG-3 on cells (HEK293-cLAG-3 stable cell line) (monkey, UniProt P18627 24-525 (human entry))
T2 construct: Full-length monkey (Chinese monkey) LAG-3 gene expressed on HEK293 cells
T2 chain: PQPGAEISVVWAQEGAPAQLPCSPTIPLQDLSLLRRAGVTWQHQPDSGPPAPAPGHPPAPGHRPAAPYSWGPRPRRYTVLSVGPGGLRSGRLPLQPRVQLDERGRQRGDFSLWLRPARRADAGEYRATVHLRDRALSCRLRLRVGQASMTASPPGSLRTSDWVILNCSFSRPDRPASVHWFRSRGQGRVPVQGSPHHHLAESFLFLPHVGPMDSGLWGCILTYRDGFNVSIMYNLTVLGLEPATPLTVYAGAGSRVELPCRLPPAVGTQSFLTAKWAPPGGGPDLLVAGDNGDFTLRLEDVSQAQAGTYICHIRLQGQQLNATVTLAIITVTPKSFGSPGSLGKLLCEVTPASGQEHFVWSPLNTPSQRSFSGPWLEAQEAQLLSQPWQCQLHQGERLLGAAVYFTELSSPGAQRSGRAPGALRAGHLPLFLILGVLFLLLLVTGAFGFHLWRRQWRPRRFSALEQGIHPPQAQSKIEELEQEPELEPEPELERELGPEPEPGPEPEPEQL

T3: human LAG-3 protein with hFc tag (hLAG-3-hFc protein) (human, UniProt P18627 23-450)
T3 construct: also called immunogen 1; LAG-3 extracellular domain protein; not shown: human IgG Fc fragment (hFc) of the pCpC vector
T3 sequence: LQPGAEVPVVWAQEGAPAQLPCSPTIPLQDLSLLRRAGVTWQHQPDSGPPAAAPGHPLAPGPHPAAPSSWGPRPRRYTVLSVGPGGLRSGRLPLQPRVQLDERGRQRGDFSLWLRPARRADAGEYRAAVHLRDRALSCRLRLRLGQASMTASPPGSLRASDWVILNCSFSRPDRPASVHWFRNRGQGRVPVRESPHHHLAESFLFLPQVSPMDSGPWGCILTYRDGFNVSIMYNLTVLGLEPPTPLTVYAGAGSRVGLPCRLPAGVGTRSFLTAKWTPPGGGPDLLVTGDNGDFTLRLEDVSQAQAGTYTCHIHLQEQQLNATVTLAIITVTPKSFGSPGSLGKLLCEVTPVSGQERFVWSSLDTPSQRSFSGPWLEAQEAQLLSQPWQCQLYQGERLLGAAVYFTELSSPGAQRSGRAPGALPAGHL

T4: hFc tagged monkey LAG-3 protein (cLAG-3-hFc protein) (monkey; human)
T4 construct: Made in HEK293 cells; also called monkey LAG-3 extracellular domain protein; not shown: human IgG Fc fragment (hFc) of the pCpC vector
T4 chain: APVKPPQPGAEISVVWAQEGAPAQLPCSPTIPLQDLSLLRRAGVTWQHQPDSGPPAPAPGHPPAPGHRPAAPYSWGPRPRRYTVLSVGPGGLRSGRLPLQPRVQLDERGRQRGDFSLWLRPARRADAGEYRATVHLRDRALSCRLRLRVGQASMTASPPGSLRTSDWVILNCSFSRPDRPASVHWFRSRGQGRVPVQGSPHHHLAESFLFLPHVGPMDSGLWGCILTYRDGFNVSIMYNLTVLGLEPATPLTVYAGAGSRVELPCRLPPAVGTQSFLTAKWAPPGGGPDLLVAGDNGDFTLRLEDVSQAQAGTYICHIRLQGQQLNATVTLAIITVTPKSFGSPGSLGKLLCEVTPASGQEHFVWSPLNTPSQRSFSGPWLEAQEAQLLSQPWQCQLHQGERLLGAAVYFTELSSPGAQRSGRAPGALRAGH

B1: 405B8H3 (mouse antibody purified from hybridoma) (antibody, V domains shown)
VH: QVQLQQSGAELVRPGASVTLSCKASGYTFTDYEMHWVKQTPVHGLEWIGATDPETGNSAYNQKFKGKAIMTADKSSSTAYMELRSLTSEDSAVYYCISTGWNDWGQGTSLTVSS
VL: DIKMTQSPSSMYASLGERVTITCKASQDINSYLSWFQQKPGKSPKTLIYRADRLLDGVPSRFSGSGSGQDYSLTISSLEYGDMGIYYCLQYDEFPYTFGGGTKLEIK
notes: also called mAb103-405B8H3; 405B81-13
B2: 409B11E12 (mouse antibody purified from hybridoma) (antibody, V domains shown)
VH: QVQLQQSGAELVRPGASVTLSCKASGYTFTDYEMHWVKQTTVHGLEWIGATDPETSYSAYNQKFKGKAILTADKSSSTAYMELRSLTSEDSAVYYCIATGWNDWGQGTSLTVSS
VL: DLKMTQSPSSMYASLGERVTITCKASQDINSYLSWFQQKPGKSPKTLIYRANRLLDGVPSRFSGSGSGQDYSLTISSLEYEDMGIYYCLQYDEFPYTFGGGTKLEIK
notes: also called mAb104-409B11E12
B3: 409D4E10 (mouse antibody purified from hybridoma) (antibody, V domains shown)
VH: QVQLQQSGAELVRPGASVTLSCKASGNTFTDYEMHWVKQTPVHGLEWIGATDPETDNTAYNQKFKGKAILTTDKSSSTAYMELRSLTSEDSAVYYCITSGWNDWGQGTSLTVSS
VL: DIKMTQSPSSMYASLGERVTITCKASQDINSYLSWFQQKPGKSPKTLIYRANRLLDGVPSRFSGSGSGQDYSLTISSLEYEDMGIYYCLQYNEFPYTFGGGTKLEIK
notes: also called mAb112-409D4E10
B4: 556F6B8 mouse-human chimeric antibody (antibody, V domains shown)
VH: RVQLKQSGPGLVQPSQSLSITCTVSGFSLIKYGVHWVRQSPGEGLEWLGVIWRGGITDYNAAFMSRLSITKDNSKSQVFFKMNSLQADDTAIYYCAKWDGPLAMDYWGQGTSVTVSS
VL: DIVMTQSHKFLSTSVGDRVSITCKASQDVGTTVAWYQQKPGQSPKLLIYWASTRHTGVPDRFTGSGSGTDFTLTISNVQSEDLADYFCQQYSSYPYTFGGGTKLEIK
notes: also called mAb123-556F6B8; 556F8B8
B5: 556F6B8 (mouse antibody purified from hybridoma) (antibody, V domains shown)
VH: RVQLKQSGPGLVQPSQSLSITCTVSGFSLIKYGVHWVRQSPGEGLEWLGVIWRGGITDYNAAFMSRLSITKDNSKSQVFFKMNSLQADDTAIYYCAKWDGPLAMDYWGQGTSVTVSS
VL: DIVMTQSHKFLSTSVGDRVSITCKASQDVGTTVAWYQQKPGQSPKLLIYWASTRHTGVPDRFTGSGSGTDFTLTISNVQSEDLADYFCQQYSSYPYTFGGGTKLEIK
notes: also called mAb123-556F6B8
B6: 105F1E10 (mouse antibody purified from hybridoma) (antibody, V domains shown)
VH: EVQLQQSGPELVKPGASVKMSCRASGYTFTDFKMHWMKQSHGKSLEWIGYIAPNNGGTAYNQKFRGKATLTVNESSNTAYMELRSLTSEDSAVYYCVDWDDVDYWGQGTTLTVSS
VL: DIKMTQSPSSMYASLGERVTITCKASQDINSYLSWFQQKSGKSPKTLIYRANRLVDGVPSRFSGSGSGQDYSLTISSLEYEDMGIYYCLQYVEFPLTFGAGTKLELK
notes: also called mAb009-105F1E10
B7: 105F1E10 (LAG-3 mouse-human chimeric antibody) (antibody, V domains shown)
VH: EVQLQQSGPELVKPGASVKMSCRASGYTFTDFKMHWMKQSHGKSLEWIGYIAPNNGGTAYNQKFRGKATLTVNESSNTAYMELRSLTSEDSAVYYCVDWDDVDYWGQGTTLTVSS
VL: DIKMTQSPSSMYASLGERVTITCKASQDINSYLSWFQQKSGKSPKTLIYRANRLVDGVPSRFSGSGSGQDYSLTISSLEYEDMGIYYCLQYVEFPLTFGAGTKLELK
B8: 405B8H3 (LAG-3 mouse-human chimeric antibody) (antibody, V domains shown)
VH: QVQLQQSGAELVRPGASVTLSCKASGYTFTDYEMHWVKQTPVHGLEWIGATDPETGNSAYNQKFKGKAIMTADKSSSTAYMELRSLTSEDSAVYYCISTGWNDWGQGTSLTVSS
VL: DIKMTQSPSSMYASLGERVTITCKASQDINSYLSWFQQKPGKSPKTLIYRADRLLDGVPSRFSGSGSGQDYSLTISSLEYGDMGIYYCLQYDEFPYTFGGGTKLEIK
notes: also called mouse-human chimeric antibody 405B8H3
B9: 409B11E12 (LAG-3 mouse-human chimeric antibody) (antibody, V domains shown)
VH: QVQLQQSGAELVRPGASVTLSCKASGYTFTDYEMHWVKQTTVHGLEWIGATDPETSYSAYNQKFKGKAILTADKSSSTAYMELRSLTSEDSAVYYCIATGWNDWGQGTSLTVSS
VL: DLKMTQSPSSMYASLGERVTITCKASQDINSYLSWFQQKPGKSPKTLIYRANRLLDGVPSRFSGSGSGQDYSLTISSLEYEDMGIYYCLQYDEFPYTFGGGTKLEIK
B10: 409D4E10 (LAG-3 mouse-human chimeric antibody) (antibody, V domains shown)
VH: QVQLQQSGAELVRPGASVTLSCKASGNTFTDYEMHWVKQTPVHGLEWIGATDPETDNTAYNQKFKGKAILTTDKSSSTAYMELRSLTSEDSAVYYCITSGWNDWGQGTSLTVSS
VL: DIKMTQSPSSMYASLGERVTITCKASQDINSYLSWFQQKPGKSPKTLIYRANRLLDGVPSRFSGSGSGQDYSLTISSLEYEDMGIYYCLQYNEFPYTFGGGTKLEIK
B11: 556F6B8 (LAG-3 mouse-human chimeric antibody) (antibody, V domains shown)
VH: RVQLKQSGPGLVQPSQSLSITCTVSGFSLIKYGVHWVRQSPGEGLEWLGVIWRGGITDYNAAFMSRLSITKDNSKSQVFFKMNSLQADDTAIYYCAKWDGPLAMDYWGQGTSVTVSS
VL: DIVMTQSHKFLSTSVGDRVSITCKASQDVGTTVAWYQQKPGQSPKLLIYWASTRHTGVPDRFTGSGSGTDFTLTISNVQSEDLADYFCQQYSSYPYTFGGGTKLEIK
notes: also called 556F8B8

Key:
[1] = target: T1, monkey LAG-3 (full length, on the cell …); assay: FACS, HEK293-cLAG-3; 40.000 nM
From the text: (§1) The pIRES plasmid with the monkey-derived full-length gene was transfected into the HEK293 cell line to construct a HEK293 stable cell line containing monkey LAG-3 (herein referred to as HEK293-cLAG-3 stable cell line). The HEK293-hLAG-3 stable cell line and HEK293-cLAG-3 stable cell line were expanded in a T-75 cell culture flask to a 90% confluence. The medium was aspirated, and the cells were washed with HBSS (Hanks' Balanced Salt Solution) 1-2 times, then treated with a enzyme-free cell dissociation fluid (Versene solution: Life technology) and the cells were collected. The cells were washed with HBSS buffer for 1-2 times. After counted, the cells were diluted with HBSS to 1-2×10⁶ cells per ml, added with 1% goat serum blocking solution, incubated on ice for 20-30 minutes, and then washed with HBSS for 2 times by centrifugation. The collected cells were suspended in the FACS buffer (HBSS+1% BSA) to 2×10⁶ cells/ml, added as 100 microliters per well to a 96-well FACS reaction plate, added with 100 microliters per well of the antibody sample to be tested, incubated on ice for 1-2 hours. The plate was washed twice with the FACS buffer by centrifugation, added with 100 microliters of fluorescent (Alexa 488)-labeled secondary antibodies per well, and incubated on ice for 0.5-1.0 hours. The plate was washed 2-3 times with FACS buffer by centrifugation, added with 100 μl fixative solution (4% Paraformaldehyde) per well to suspend the cells. 5-10 minutes later, it was washed 1-2 times with FACS buffer by centrifugation. The cells were suspended with 100 microliters of FACS buffer, FACS (FACSCalibur, BD) was used for detection and the results were analyzed.

[2] = target: T2, monkey LAG-3 on cells (HEK293-cLAG-3 …); assay: FACS, HEK293-cLAG-3, antibody 0.000 nM
From the text: as §1

[3] = target: T2, monkey LAG-3 on cells (HEK293-cLAG-3 …); assay: FACS, HEK293-cLAG-3, antibody 0.064 nM
From the text: as §1

[4] = target: T3, human LAG-3 protein with hFc tag …; assay: ELISA, hLAG-3-hFc coated; 0.0667 nM
Method: (§2) The plate was sealed with plastic film and incubated overnight at 4° C. The plate was washed 2 times with the plate washing solution (PBS+0.01% Tween20) on the next day, and added with the blocking solution (PBS+0.01% Tween20+1% BSA) and blocked at room temperature for 1-2 hours. The blocking solution was poured out, and the plate was added with 50-100 μl of the antibody sample to be tested to each well, incubated at 37° C. for 1-2 hours, and washed 2-3 times with a plate washing solution (PBS+0.01% Tween20). HRP (horseradish peroxidase) labeled secondary antibody was added, and the plate was incubated at 37° C. for 1-2 hours, and washed 2-3 times with a plate washing solution (PBS+0.01% Tween20). 100 μl of TMB substrate was added to each well. After incubated at room temperature for 15-30 minutes, the plate was added with 100 μl of stop solution (1.0N HCl) to each well.

[5] = target: T4, hFc tagged monkey LAG-3 protein …; assay: ELISA, cLAG-3-hFc coated; 6.6667 nM
Method: as §2

| Binder | Mean fluorescence intensity [1] | OD450 [4] | OD450 [5] | further results |
| --- | --- | --- | --- | --- |
| B1 | 108 MFI | – | – | – |
| B2 | 102 MFI | – | – | – |
| B3 | 130 MFI | – | – | – |
| B4 | – | – | – | Mean fluorescence intensity [2]: 3.1; Mean fluorescence intensity [3]: 4.45 |
| B5 | 51 MFI | – | – | – |
| B6 | 87 MFI | – | – | – |
| B7 | – | 1.29 OD450 | 3.53 OD450 | – |
| B8 | – | 2.25 OD450 | 3.55 OD450 | – |
| B9 | – | 2.16 OD450 | 3.47 OD450 | – |
| B10 | – | 3.1 OD450 | 3.79 OD450 | – |
| B11 | – | 1.94 OD450 | 3.78 OD450 | – |
